# Data as given in paper doi:10.1101/2023.08.04.552031, “Oligomerization and positive feedback on membrane recruitment encode dynamically stable PAR-3 asymmetries in the C. elegans zygote” (bioRxiv, 2023).
# B1: PAR-3::GFP, endogenously tagged (C-terminal fusion of GFP to PAR-3 from the endogenous locus) (natural protein, C. elegans, UniProt Q17353 1-1379, looked up)
# chain: MSASSTSSSSTSCPEGGEPSGSCKSSDEGESTLKKRMQQYGIASGYANSSISTLDRSQYQSLPLNGTRRVTVQFGRMKIVVPWKESDQTVGQLADAALLRYKKARGMANEDRIHVHRLECASDGGILDMDDVLEEVFDLNYDQILAITDEANGGSTTPTYSQIQKQQHHYAQPLPYARKFDGGPSTPIASAFGSVTVNHQAHRAASPYNVGFARSNSRDFAPQPTHSKERRDSVVEVSSFDQIPQSGLRVSTPKPSRQSEDVIDGKPMNQPILRSSLRTEASGSRTEEATPVKQSRVTLSPEVEKKLAEQDERKSERRKHYDKNPGRFARGSDRKSRITDALLDARDRIADQLESQNPAEETKSQMIRVKIDQGPMPGTSLVTFPPIPEKSENEKQLGIEVNAVFDESSELPGTSEPTKLSSVQIMKIEDGGRIAKDGRIRVGDCIVAIDGKPVDQMSIIRVRASISDLAAVTSRPVTLIINRSLESFLEQESSAKPIQSALQQANTQYIGHTTVVELIKSSNGFGFTVTGRETAKGERLFYIGTVKPYGVALGHLKSGDRLLEINGTPTGQWTQSEIVEKLKETMVGEKIKFLVSRVSQSAIMSTSASSENKENEETLKVVEEEKIPQKLPLPALMTPPVPKDTPALSPSGASRFEIVIPFINGSSSAGLGVSLKARVSKKSNGSKVDCGIFIKNVMHGGAAFKEGGLRVDDRIVGVEDIDLEPLDNREAQAALAKKLKEVGMISSNVRLTISRYNECNPGQISRDLSRITVDASSPSPSSRMSSHTAPDSLLPSPATRGTSSSGADSSHSRQSSASSAVPAVPARLTERDSIVSDGTSRNDESELPDSADPFNREGLGRKSLSEKRGMGAAADPQHIKLFQDIKHQRQNSAPTSSTQKRSKSQPRSSSQRNYRSPMKLVDLPTTAAASASTNSQNLDDSDMLNRRSQSMESINRPVESILRGTGQIPTGSSSKVQFMQAASPDQHPFPPGAALLRLKNEESRSRDKSRRKSMGNPFSAMRNFFGFGSKSRDASPEKTPTESVQLRSVERPKSIIDERNNGSSERAPPPLPPHQSQRRGSGGNVFVDYGEPYGLIPQYPHNTTSGYESYADSELYDRYAAHRYHPRGGPIIDEDEYIYRQQSTSGNSPINTSSYVNYGLPASNAYHVGSRIPPQTSSGSISKTSGAMRRVYPAEYDEDVAYHQQIPQQSTRYQQGSGSGRGNADYHHMFNSWFAYTGGGAVGAAPVIKSSYGSSPVRIAAASAIERGESFVVEPVSGSSASATDRRGRSTSSGAVASGSSSTGFQYAAKEKYADARSGKFNGGSTRLFIPRHGGGLSAAAFATNFGGEAYETRGGGAGGSPSQYRRRDQGPPHRFPQY
# notes: PAR-3, C. elegans, oligomeric scaffold protein; expressed from the endogenous locus; Oligomers of variable size (exponential size distribution) at the cell membrane; also called endogenously-tagged PAR-3::GFP; par-1; source: expressed from the endogenous locus in C. elegans, observed in living one-cell embryos; not shown: GFP, C-terminal, kept
# B2: PAR-3::GFP, transgenic (natural protein, C. elegans, UniProt Q17353 1-1379, looked up)
# chain: B1 chain
# notes: PAR-3, C. elegans; transgenically expressed; The oligomers from which single labelled molecules depolymerise probably also hold unlabelled PAR-3 of the embryo; also called transgenic PAR-3::GFP; full length PAR-3::GFP
# How the values were obtained:
# [1] = target: the molecule itself; assay: particle intensities calibrated to single GFP molecules (near-TIRF imaging of living embryos); anterior membrane, where PAR-3 density is higher; homozygous par-1 mutant embryos, late maintenance phase; streaming mode, 100% laser power, 50 msec exposure; features binned by intensity against the mean single molecule intensity after photobleaching; size distribution fitted to An = A1 α^n−1
# [2] = target: the molecule itself; assay: particle intensities calibrated to single GFP molecules (near-TIRF imaging of living embryos); posterior membrane, where PAR-3 density is lower; homozygous par-1 mutant embryos, late maintenance phase; streaming mode, 100% laser power, 50 msec exposure; features binned by intensity against the mean single molecule intensity after photobleaching; size distribution fitted to An = A1 α^n−1
# [3] = target: the molecule itself; assay: single molecule tracking and release curves (near-TIRF imaging of living embryos); single PAR-3::GFP molecules, 100% laser power, 50 msec exposures, duty ratio of exposure varied; release curves fitted to exponentials from tmin = 1 sec; linear fit kops = kdep + dr * kpb, the intercept is kdep (depolymerization of a subunit from membrane-bound oligomers); also in par-6(RNAi) and cdc-42(RNAi) embryos, no significant …
Protein,stoichiometry N [1],stoichiometry N [2],koff [3] [s⁻¹]
B1,3.48 ± 0.65 subunits (mean oligomer size),1.65 ± 0.16 subunits (mean oligomer size),–
B2,–,–,0.08
